B1: INTS3 (parent)
chain: AQLQALRQKEVDFCISLLRERFME
B2: TRAF3IP2 (parent)
chain: YGHDYPRAAYQQVIQPALPGQPLP
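Also: lentivirally expressed fusions sorted by FACS into six bins by GFP to DsRed ratio, PSI derived from sequencing read proportions per bin multiplied by bin number.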

Variants of: B1
Experiment: protein stability index of a GFP-peptide fusion (GPS, HEK-293T) (PSI 1-6); higher = more stable
Conditions: c terminus: a fixed tail appended
With AQLQACRQKEVDFCISLLRERFME [L6C] the protein stability index was 3.33.
AQLQAYRQKEVDFCISLLRERFME [L6Y] gave a protein stability index of 2.57.
With AQLQAPRQKEVDFCISLLRERFME [L6P] the protein stability index was 2.25.
In the case of AQLQAHRQKEVDFCISLLRERFME [L6H], the protein stability index is reported as 2.11.
AQWQALRQKEVDFCISLLRERFME [L3W] showed a protein stability index of 2.71.
AQMQALRQKEVDFCISLLRERFME [L3M] gave a protein stability index of 2.
Variant AQTQALRQKEVDFCISLLRERFME [L3T] has a protein stability index of 1.44.
Variant AQDQALRQKEVDFCISLLRERFME [L3D] has a protein stability index of 1.81.
Variant AQLQALRQKEVDFCISPLRERFME [L17P] has a protein stability index of 2.16.
Work on AQLQALRQKEVDFCISGLRERFME [L17G] yielded a protein stability index of 2.3.
AQLQALRQKEVDFCISYLRERFME [L17Y] showed a protein stability index of 2.51.
AQLQALRQKEVSFCISLLRERFME [D12S] gave a protein stability index of 3.29.
Variant AQLQALRQKEVWFCISLLRERFME [D12W] has a protein stability index of 3.08.
Work on AQLQALRQKEVGFCISLLRERFME [D12G] yielded a protein stability index of 2.1.
In the case of AQLQALRQKEVEFCISLLRERFME [D12E], the protein stability index is reported as 2.45.
For AQLQALRQKEVPFCISLLRERFME [D12P], the protein stability index was 2.05.
Variant AQLQALRQKEVKFCISLLRERFME [D12K] has a protein stability index of 1.98.
Work on AQLQALRQKEVVFCISLLRERFME [D12V] yielded a protein stability index of 4.29.
In the case of AQLQALRQKEVLFCISLLRERFME [D12L], the protein stability index is reported as 2.47.
In the case of AQLQALRQKEVDVCISLLRERFME [F13V], the protein stability index is reported as 2.7.
For AQLQALRQKEVDICISLLRERFME [F13I], the protein stability index was 2.49.
With AQLQALRQKEVDACISLLRERFME [F13A] the protein stability index was 1.09.
AQLQALRQKEVDFCISLLKERFME [R19K] showed a protein stability index of 1.2.
AQLQALRQKEVDFCISLLNERFME [R19N] showed a protein stability index of 3.64.
With AQLQALRQKEVDFCISLLEERFME [R19E] the protein stability index was 1.
AQLQALRQKEVDFCISLLLERFME [R19L] gave a protein stability index of 2.02.
CQLQALRQKEVDFCISLLRERFME [A1C] gave a protein stability index of 3.01.
KQLQALRQKEVDFCISLLRERFME [A1K] showed a protein stability index of 2.62.
For RQLQALRQKEVDFCISLLRERFME [A1R], the protein stability index was 2.08.
With AQLQALRQDEVDFCISLLRERFME [K9D] the protein stability index was 1.9.
In the case of AQLQALRQQEVDFCISLLRERFME [K9Q], the protein stability index is reported as 3.5.
With AQLQALRQYEVDFCISLLRERFME [K9Y] the protein stability index was 3.51.
AQLQALRRKEVDFCISLLRERFME [Q8R] gave a protein stability index of 1.91.
AQLQALRSKEVDFCISLLRERFME [Q8S] showed a protein stability index of 3.06.
Variant AQLQALRNKEVDFCISLLRERFME [Q8N] has a protein stability index of 2.37.
Variant AQLQALRIKEVDFCISLLRERFME [Q8I] has a protein stability index of 3.36.
In the case of AQLQALRPKEVDFCISLLRERFME [Q8P], the protein stability index is reported as 1.22.
In the case of AQLQALRAKEVDFCISLLRERFME [Q8A], the protein stability index is reported as 2.62.
AQLQALVQKEVDFCISLLRERFME [R7V] showed a protein stability index of 1.74.
For AQLQALKQKEVDFCISLLRERFME [R7K], the protein stability index was 2.71.
AQLQALNQKEVDFCISLLRERFME [R7N] gave a protein stability index of 2.35.
With AQLQALRQKEVDFCNSLLRERFME [I15N] the protein stability index was 2.46.
AQLQALRQKEVDFCWSLLRERFME [I15W] showed a protein stability index of 2.07.
AQLQALRQKEVDFCYSLLRERFME [I15Y] showed a protein stability index of 2.3.
Variant AQLQALRQKEVDFCSSLLRERFME [I15S] has a protein stability index of 1.67.
AQLQALRQKEVDFCISLFRERFME [L18F] gave a protein stability index of 3.16.
For AQLQALRQKEVDFCISLERERFME [L18E], the protein stability index was 2.57.
AQLQALRQKEVDFCISLYRERFME [L18Y] gave a protein stability index of 3.92.
For AQLQALRQKEVDFCISLLRERFMM [E24M], the protein stability index was 4.47.
Variant AQLQALRQKEVDFCISLLRERFMV [E24V] has a protein stability index of 2.95.
Work on AQLQALRQKEVDFCISLLRERFMP [E24P] yielded a protein stability index of 1.31.
AQLQALRQKEHDFCISLLRERFME [V11H] showed a protein stability index of 3.66.
AQLQALRQKEEDFCISLLRERFME [V11E] gave a protein stability index of 2.54.
In the case of AQLQALRQKETDFCISLLRERFME [V11T], the protein stability index is reported as 1.81.
With AQLQALRQKENDFCISLLRERFME [V11N] the protein stability index was 2.25.
For AMLQALRQKEVDFCISLLRERFME [Q2M], the protein stability index was 3.7.
Variant ADLQALRQKEVDFCISLLRERFME [Q2D] has a protein stability index of 3.29.
AQLQALRQKEVDFCISLLRERYME [F22Y] gave a protein stability index of 2.21.
With AQLQALRQKEVDFCISLLRERGME [F22G] the protein stability index was 1.17.
With AQLQALRQKEVDFCISLLRERMME [F22M] the protein stability index was 3.62.
AQLQALRQKEVDFCISLLRKRFME [E20K] showed a protein stability index of 2.09.
Variant AQLQALRQKEVDFCISLLRGRFME [E20G] has a protein stability index of 3.34.
With AQLQALRQKDVDFCISLLRERFME [E10D] the protein stability index was 1.04.
Work on AQLQALRQKYVDFCISLLRERFME [E10Y] yielded a protein stability index of 1.49.
In the case of AQLQALRQKNVDFCISLLRERFME [E10N], the protein stability index is reported as 1.32.
Work on AQLQELRQKEVDFCISLLRERFME [A5E] yielded a protein stability index of 2.24.
Work on AQLQSLRQKEVDFCISLLRERFME [A5S] yielded a protein stability index of 2.33.
For AQLQDLRQKEVDFCISLLRERFME [A5D], the protein stability index was 2.68.
For AQLQRLRQKEVDFCISLLRERFME [A5R], the protein stability index was 2.15.
With AQLQALRQKEVDFLISLLRERFME [C14L] the protein stability index was 2.93.
Work on AQLQALRQKEVDFGISLLRERFME [C14G] yielded a protein stability index of 1.84.
Variant AQLQALRQKEVDFIISLLRERFME [C14I] has a protein stability index of 2.68.
AQLQALRQKEVDFKISLLRERFME [C14K] gave a protein stability index of 1.93.
Variant AQLQALRQKEVDFEISLLRERFME [C14E] has a protein stability index of 1.75.
In the case of AQLQALRQKEVDFCISLLREWFME [R21W], the protein stability index is reported as 2.68.
AQLQALRQKEVDFCISLLRETFME [R21T] gave a protein stability index of 3.99.
AQLQALRQKEVDFCISLLRERFAE [M23A] showed a protein stability index of 2.78.
AQLQALRQKEVDFCISLLRERFLE [M23L] gave a protein stability index of 2.29.
For AQLQALRQKEVDFCISLLRERFKE [M23K], the protein stability index was 2.84.
AQLQALRQKEVDFCISLLRERFGE [M23G] gave a protein stability index of 1.9.
In the case of AQLQALRQKEVDFCISLLRERFPE [M23P], the protein stability index is reported as 1.79.
Variant AQLQALRQKEVDFCISLLRERFQE [M23Q] has a protein stability index of 1.03.
Work on AQLQALRQKEVDFCISLLRERFEE [M23E] yielded a protein stability index of 1.46.
AQLQALRQKEVDFCISLLRERFVE [M23V] showed a protein stability index of 5.11.
Work on AQLQALRQKEVDFCISLLRERFDE [M23D] yielded a protein stability index of 1.95.
AQLQALRQKEVDFCIVLLRERFME [S16V] gave a protein stability index of 1.11.
AQLQALRQKEVDFCIFLLRERFME [S16F] gave a protein stability index of 4.27.
For AQLQALRQKEVDFCIQLLRERFME [S16Q], the protein stability index was 3.15.
AQLQALRQKEVDFCIELLRERFME [S16E] showed a protein stability index of 3.24.
With AQLRALRQKEVDFCISLLRERFME [Q4R] the protein stability index was 2.3.
In the case of AQLSALRQKEVDFCISLLRERFME [Q4S], the protein stability index is reported as 1.55.
In the case of AQLWALRQKEVDFCISLLRERFME [Q4W], the protein stability index is reported as 3.64.
Variant AQLPALRQKEVDFCISLLRERFME [Q4P] has a protein stability index of 1.5.

Variants of: B2
Experiment: as above
Conditions: c terminus: a fixed tail appended
For QGHDYPRAAYQQVIQPALPGQPLP [Y1Q], the protein stability index was 3.73.

From the supplement of paper PMC10567573
